Laboratory results published in the RNAGym collection of RNA variant scans (doi:10.1021/acssynbio.7b00057).

B1: Pistol ribozyme (parent)
chain: GGGUCGUUGUUCCAUAAUCGCGUGGAUAUGGCACGCAAGUUUCUACCGGGCACCGUAAAUGUCCGACUGGAGCCGUUCGGGCGGCUAUAAACAGACCUCAGGCCCGAAGCGUGGCGGCACCUGCCGCCGGUGGUAAAAAAGAUCGGAAGAGCACACGUCU

Variants of: B1
Assay: aptazyme ON/OFF ratio, guanine; higher = stronger switching; co-transcriptional cleavage with and without guanine

Row | Variant | aptazyme ON/OFF ratio
1 | GGGUCGUUAACUGAUAAUCGCGUGGAUAUGGCACGCAAGUUUCUACCGGGCACCGUAAAUGUCCGACUGGAGCCGUUCGGGCGGCUAUAAACAGACCUCAGGCCCGAAGCGUGGCGGCACCUGCCGCCGGUGGUAAAAAAGAUCGGAAGAGCACACGUCU | 1.36
2 | GGGUCGUUAACUUAUAAUCGCGUGGAUAUGGCACGCAAGUUUCUACCGGGCACCGUAAAUGUCCGACUGGAGCCGUUCGGGCGGCUAUAAACAGACCUCAGGCCCGAAGCGUGGCGGCACCUGCCGCCGGUGGUAAAAAAGAUCGGAAGAGCACACGUCU | 1.26
3 | GGGUCGUUAACUAAUAAUCGCGUGGAUAUGGCACGCAAGUUUCUACCGGGCACCGUAAAUGUCCGACUGGAGCCGUUCGGGCGGCUAUAAACAGACCUCAGGCCCGAAGCGUGGCGGCACCUGCCGCCGGUGGUAAAAAAGAUCGGAAGAGCACACGUCU | 1.34
4 | GGGUCGUUAAAGUAUAAUCGCGUGGAUAUGGCACGCAAGUUUCUACCGGGCACCGUAAAUGUCCGACUGGAGCCGUUCGGGCGGCUAUAAACAGACCUCAGGCCCGAAGCGUGGCGGCACCUGCCGCCGGUGGUAAAAAAGAUCGGAAGAGCACACGUCU | 1.23
5 | GGGUCGUUAAAGGAUAAUCGCGUGGAUAUGGCACGCAAGUUUCUACCGGGCACCGUAAAUGUCCGACUGGAGCCGUUCGGGCGGCUAUAAACAGACCUCAGGCCCGAAGCGUGGCGGCACCUGCCGCCGGUGGUAAAAAAGAUCGGAAGAGCACACGUCU | 1.2
6 | GGGUCGUUAAAGAAUAAUCGCGUGGAUAUGGCACGCAAGUUUCUACCGGGCACCGUAAAUGUCCGACUGGAGCCGUUCGGGCGGCUAUAAACAGACCUCAGGCCCGAAGCGUGGCGGCACCUGCCGCCGGUGGUAAAAAAGAUCGGAAGAGCACACGUCU | 1.26
7 | GGGUCGUUAACAAAUAAUCGCGUGGAUAUGGCACGCAAGUUUCUACCGGGCACCGUAAAUGUCCGACUGGAGCCGUUCGGGCGGCUAUAAACAGACCUCAGGCCCGAAGCGUGGCGGCACCUGCCGCCGGUGGUAAAAAAGAUCGGAAGAGCACACGUCU | 1.38
8 | GGGUCGUUAACAGAUAAUCGCGUGGAUAUGGCACGCAAGUUUCUACCGGGCACCGUAAAUGUCCGACUGGAGCCGUUCGGGCGGCUAUAAACAGACCUCAGGCCCGAAGCGUGGCGGCACCUGCCGCCGGUGGUAAAAAAGAUCGGAAGAGCACACGUCU | 1.23
9 | GGGUCGUUAACAUAUAAUCGCGUGGAUAUGGCACGCAAGUUUCUACCGGGCACCGUAAAUGUCCGACUGGAGCCGUUCGGGCGGCUAUAAACAGACCUCAGGCCCGAAGCGUGGCGGCACCUGCCGCCGGUGGUAAAAAAGAUCGGAAGAGCACACGUCU | 1.41
10 | GGGUCGUUAACCGAUAAUCGCGUGGAUAUGGCACGCAAGUUUCUACCGGGCACCGUAAAUGUCCGACUGGAGCCGUUCGGGCGGCUAUAAACAGACCUCAGGCCCGAAGCGUGGCGGCACCUGCCGCCGGUGGUAAAAAAGAUCGGAAGAGCACACGUCU | 1.09
11 | GGGUCGUUAACCAAUAAUCGCGUGGAUAUGGCACGCAAGUUUCUACCGGGCACCGUAAAUGUCCGACUGGAGCCGUUCGGGCGGCUAUAAACAGACCUCAGGCCCGAAGCGUGGCGGCACCUGCCGCCGGUGGUAAAAAAGAUCGGAAGAGCACACGUCU | 1.13
12 | GGGUCGUUAACCUAUAAUCGCGUGGAUAUGGCACGCAAGUUUCUACCGGGCACCGUAAAUGUCCGACUGGAGCCGUUCGGGCGGCUAUAAACAGACCUCAGGCCCGAAGCGUGGCGGCACCUGCCGCCGGUGGUAAAAAAGAUCGGAAGAGCACACGUCU | 1.01
13 | GGGUCGUUAAAAGAUAAUCGCGUGGAUAUGGCACGCAAGUUUCUACCGGGCACCGUAAAUGUCCGACUGGAGCCGUUCGGGCGGCUAUAAACAGACCUCAGGCCCGAAGCGUGGCGGCACCUGCCGCCGGUGGUAAAAAAGAUCGGAAGAGCACACGUCU | 1.25
14 | GGGUCGUUAAAAUAUAAUCGCGUGGAUAUGGCACGCAAGUUUCUACCGGGCACCGUAAAUGUCCGACUGGAGCCGUUCGGGCGGCUAUAAACAGACCUCAGGCCCGAAGCGUGGCGGCACCUGCCGCCGGUGGUAAAAAAGAUCGGAAGAGCACACGUCU | 1.97
15 | GGGUCGUUAAAAAAUAAUCGCGUGGAUAUGGCACGCAAGUUUCUACCGGGCACCGUAAAUGUCCGACUGGAGCCGUUCGGGCGGCUAUAAACAGACCUCAGGCCCGAAGCGUGGCGGCACCUGCCGCCGGUGGUAAAAAAGAUCGGAAGAGCACACGUCU | 1.4
16 | GGGUCGUUAACUCAUAAUCGCGUGGAUAUGGCACGCAAGUUUCUACCGGGCACCGUAAAUGUCCGACUGGAGCCGUUCGGGCGGCUAUAAACAGACCUCAGGCCCGAAGCGUGGCGGCACCUGCCGCCGGUGGUAAAAAAGAUCGGAAGAGCACACGUCU | 1.13
17 | GGGUCGUUAACACAUAAUCGCGUGGAUAUGGCACGCAAGUUUCUACCGGGCACCGUAAAUGUCCGACUGGAGCCGUUCGGGCGGCUAUAAACAGACCUCAGGCCCGAAGCGUGGCGGCACCUGCCGCCGGUGGUAAAAAAGAUCGGAAGAGCACACGUCU | 1.65
18 | GGGUCGUUAACGCAUAAUCGCGUGGAUAUGGCACGCAAGUUUCUACCGGGCACCGUAAAUGUCCGACUGGAGCCGUUCGGGCGGCUAUAAACAGACCUCAGGCCCGAAGCGUGGCGGCACCUGCCGCCGGUGGUAAAAAAGAUCGGAAGAGCACACGUCU | 1.32
